The target of this assay is FITC–BID BH3. The assay can be described thus: fluorescence polarisation. (Polarisation of emitted light reports the rotation of a fluorescent probe.)

In general, EC50 refers to the concentration giving half of the maximal effect. Lower therefore signals greater potency.

Chain of MAIM1-derivatized MCL-1ΔNΔC (Q07820 172-327, stated change not applied): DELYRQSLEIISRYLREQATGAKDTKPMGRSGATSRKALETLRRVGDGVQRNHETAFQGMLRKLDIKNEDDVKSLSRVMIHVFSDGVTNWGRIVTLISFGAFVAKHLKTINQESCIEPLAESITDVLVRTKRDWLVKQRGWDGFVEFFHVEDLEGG
Chain of MCL-1ΔNΔC (Q07820 172-327, stated change not applied): as above

In turn, “MAIM1-derivatized MCL-1ΔNΔC (from UniProt Q07820 172-327) (domain or fragment)” registered an EC50 of 85 nM.

On to “MCL-1ΔNΔC (from UniProt Q07820 172-327) (domain or fragment)”, for which the EC50 was found to be 21 nM.

In turn, “MCL-1ΔNΔC C286W (from UniProt Q07820 172-327) (domain or fragment)” registered a 50% effective concentration (EC50) of 109 nM.

Values taken from publication PMC4900187.
